# In patent US20230251254A1, “METHOD FOR EVALUATING INTERACTION BETWEEN IMMOBILIZED SUBSTANCE IMMOBILIZED DIRECTLY OR INDIRECTLY ON SUBSTRATE AND PROXIMITY-DEPENDENT MODIFYING ENZYMELABELED SUBSTANCE TO BE ANALYZED” (CELLFREE SCIENCES CO.,LTD., priority 2020, published 2023):
# B1: TurboID: proximity-dependent biotin ligase, SEQ ID NO: 2 (protein)
# chain: MKDNTVPLKLIALLANGEFHSGEQLGETLGMSRAAINKHIQTLRDWGVDVFTVPGKGYSLPEPIPLLNAKQILGQLDGGSVAVLPVVDSTNQYLLDRIGELKSGDACIAEYQQAGRGSRGRKWFSPFGANLYLSMFWRLKRGPAAAIGLGPVIGIVMAEALRKLGADKVRVKWPNDLYLQDRKLAGILVELAGITGDAAQIVIGAGINVAMRRVEESVVNQGWITLQEAGINLDRNTLAATLIRELRAALELFEQEGLAPYLPRWEKLDNFINRPVKLIIGDKEIFGISRGIDKQGALLLEQDGVIKPWMGGEISLRSAEK
# modifications: TurboID
# B2: AirID: proximity-dependent biotin ligase, SEQ ID NO: 3 (protein)
# chain: MKDNTVPLTLISILADGEFHSGEQLGEQLGMSRAAINKHIKTLRDWGVDVFRVQGKGYCLPEPIQLLDEEKIRQQLDEGSVTVLPVIDSTNQYLLDRLDELTSGDVCIAEYQQAGRGSRGRKWFSPFGANLYLSMYWRLEQGPAAAMGLSLVIGIVMAETLQKLGADGVRVKWPNDLYLNDRKLAGILVEMTGKTGDAAHIVIGAGINLSMREPETDEVDQSWINLQEAGITIDRNQLAARLIKDLRSALRQFEQQGLAPFLSRWEALDNFINRPVKLIIGDREIHGIARGINEQGALLLEQDGVIKPWIGGEISLRSA
# modifications: AirID
# B3: AWA-R118S, Q141R mutant: proximity-dependent biotin ligase, SEQ ID NO: 15 (protein)
# chain: MSEQWSRKREILALLSSGHFVSGEELATQLGISRTAVSKHIAALEEYGVDIYSVKGKGYKLANPISLIDESKLKSAINNRCFYFDEIPSTNGFMLKHAEELKSGDICVAEYQSAGRGSRGRTWVSPYGCHLYFSLYWRFPRGMAQAMGLSLVVACSLVKVLKSFGVDGVGVKWPNDIYLNHKKLAGVLIEMSGQADSECHLVIGIGINMAMSEQQGKKIDQPWSDLSSLTSMPDKTELLIALQKQLKQDLELFEREGLKAFQPRWQEADLFYGKQIKLLMGENQVEGICRGIDEQGAVLLETDDGIQAFIGGEISLRAA
# modifications: AVVA-R118S,Q141R
# B4: AVVA-R118G, Q141R mutant: proximity-dependent biotin ligase, SEQ ID NO: 16 (protein)
# chain: MSEQWSRKREILALLSSGHFVSGEELATQLGISRTAVSKHIAALEEYGVDIYSVKGKGYKLANPISLIDESKLKSAINNRCFYFDEIPSTNGFMLKHAEELKSGDICVAEYQSAGRGGRGRTWVSPYGCHLYFSLYWRFPRGMAQAMGLSLVVACSLVKVLKSFGVDGVGVKWPNDIYLNHKKLAGVLIEMSGQADSECHLVIGIGINMAMSEQQGKKIDQPWSDLSSLTSMPDKTELLIALQKQLKQDLELFEREGLKAFQPRWQEADLFYGKQIKLLMGENQVEGICRGIDEQGAVLLETDDGIQAFIGGEISLRAA
# modifications: AVVA-R118G,Q141R
# Tested on: interaction between TP53 and MDM2 or between Iκβα and RelA
# Assay: Comparison of altered biotinylation enzymes by the method of Example 2 (Example 4)
# Format: biochemical
# Conditions: for specificity / non-specific signal of labeling: luminescence detection; for labeling activity on introduction of Q141R mutation into AVVA mutant: compared with AVVA mutant without Q141R
# Experimental: In this Example, various altered biotinylation enzymes were evaluated by the method used in Example 2.
# Specifically, by a method similar to that for AirID (SEQ ID NO: 3) in Example 2, the interaction between TP53 and MDM2 or between Iκβα and RelA was analyzed using BioID (SEQ ID NO: 1), TurboID (SEQ ID NO: 2), an AirID-S118G mutant (SEQ ID NO: 12), an AWA-R118S mutant (SEQ ID NO: 13), an AVVA-R118G mutant (SEQ ID NO: 14), an AWA-R118S, Q141R mutant (SEQ ID NO: 15), and an AVVA-R118G, Q141R mutant (SEQ ID NO: 16).
# The results in the figures were standardized in that the dispensation amount of the magnetic beads on the wells of the plate was 75 nL. An exposure time at the time of luminescence detection with LAS4000 (manufactured by GE Healthcare) was set to 3 minutes for TurboID, and 10 minutes for the protein of any other sequence identification number. A signal value was obtained from a measurement image through use of Array-Pro Analyzer™.
Molecule,specificity / non-specific signal of labeling (75 nL magnetic beads),biotin modification activity (compared with the other enzymes),"signal intensity (75 nL magnetic beads, exposure 3 minutes for TurboID)",labeling activity on introduction of Q141R mutation into AVVA mutant
"BioID: proximity-dependent biotin ligase, SEQ ID NO: 1 [reference compound]",low non-specificity,lower biotin modification activity than the other enzymes,–,–
B1,a certain signal (non-specific) is found even for an interaction that should be negative,–,high signal intensity,–
B2,extremely high specificity,–,–,–
B3,extremely high specificity,–,–,enhances its labeling activity
B4,extremely high specificity,–,–,enhances its labeling activity
